# Reference: US20240117073A1, “METHODS OF TREATING NEOPLASTIC ASTROCYTOMA” (Ludwig Institute for Cancer Research Ltd., priority 2009, published 2024)
# Values joined by “and” are separate entries in the source; they are usually repeats but may differ in a detail not shown here. Equal entries are not always repeated. “Also recorded” adds a separate entry of the source.
# B1: mAb806: murine monoclonal antibody recognizing de2-7 EGFR and amplified EGFR; VH SEQ ID NO:2, VL SEQ ID NO:4 (antibody, listed as Mus musculus, V domains shown)
# VH: MRVLILLWLFTAFPGVLSDVQLQESGPSLVKPSQSLSLTCTVTGYSITSDFAWNWIRQFPGNKLEWMGYISYSGNTRYNPSLKSRISITRDTSKNQFFLQLNSVTIEDTATYYCVTAGRGFPYWGQGTLVTVSA
# VL: MVSTAQFLAFLLLWFPGARCDILMTQSPSSMSVSLGDTVSITCHSSQDINSNIGWLQQRPGKSFKGLIYHGTNLDDEVPSRFSGSGSGADYSLTISSLESEDFADYYCVQYAQFPWTFGGGTKLEIKR
# What was measured:
# [1] = test system: Ba/F3 cells expressing the wtEGFR; assay: EGF-induced proliferation (MTT assay); assay type: cell-based; settings: antibody 10 μg/ml
# Method: Cells growing in log phase were harvested and washed twice with PBS to remove residual IL-3. […] Proliferation was determined using the MTT assay (van de Loosdrecht et al. (1994) J. Immunol. Methods. 174, 311-320).
# parental U87MG cells = assay: binding of iodinated antibody to cells; parameters: species or system human
# U87MG xenografts [2] = assay: established xenograft model; assay type: in vivo, nude mice; settings: 1 mg per injection
# Method: Tumor cells (3×10^6) in […] of PBS were inoculated subcutaneously into both flanks of 4-6 week old female nude mice (Animal Research Centre, Western Australia, Australia). […] Treatment was continued for a total of 6 doses, 3 times per week for 2 weeks. In the established model, treatment was started when tumors had reached a mean volume of 65±6.42 mm^3 (U87MG.Δ2-7), 84±9.07 mm^3 (U87MG), 73±7.5 mm^3 (U87MG.wtEGFR) or 201±19.09 mm^3 (A431 tumors). Tumor volume in mm^3 was determined using the formula (length×width^2)/2, where length was the longest axis and width the measurement at right angles to the length (Clark et al. (2000) Therapeutic efficacy of anti-Lewis (y) humanized 3S 193 radioimmunotherapy in a breast cancer model: enhanced activity when combined with Taxol chemotherapy. Clin. Cancer Res. 6, 3621-3628). Data was expressed as mean tumor volume±S.E. for each treatment group. Statistical analysis was performed at given time points using Student's t-test. Animals were euthanized when the xenografts reached an approximate volume of 1.5 cm^3 and the tumors excised for histological examination. This research project was approved by the Animal Ethics Committee of the Austin and Repatriation Medical Centre. […]
# [3] = test system: HN5 head and neck cell line; assay: FACS binding to cell lines; assay type: cell-based, human
# U87MG xenografts [4] = assay: preventative xenograft model; assay type: in vivo, nude mice; settings: 1 mg per injection i.p., 3 times per week for 2 weeks
# Method: (§1) Tumor cells (3×10^6) in […] of PBS were inoculated subcutaneously into both flanks of 4-6 week old female nude mice (Animal Research Centre, Western Australia, Australia). […] Treatment was continued for a total of 6 doses, 3 times per week for 2 weeks. In the established model, treatment was started when tumors had reached a mean volume of 65±6.42 mm^3 (U87MG.Δ2-7), 84±9.07 mm^3 (U87MG), 73±7.5 mm^3 (U87MG.wtEGFR) or 201±19.09 mm^3 (A431 tumors). Tumor volume in mm^3 was determined using the formula (length×width^2)/2, where length was the longest axis and width the measurement at right angles to the length (Clark et al. (2000) Therapeutic efficacy of anti-Lewis (y) humanized 3S 193 radioimmunotherapy in a breast cancer model: enhanced activity when combined with Taxol chemotherapy. Clin. Cancer Res. 6, 3621-3628). Data was expressed as mean tumor volume±S.E. for each treatment group. Statistical analysis was performed at given time points using Student's t-test. Animals were euthanized when the xenografts reached an approximate volume of 1.5 cm^3 and the tumors excised for histological examination. This research project was approved by the Animal Ethics Committee of the Austin and Repatriation Medical Centre.
# DU145 xenografts = assay: established xenograft model; assay type: in vivo, nude mice; settings: day 67; 1 mg i.p.
# Text: Xenografts were allowed to establish for 18 days before therapy commenced (3 times a week for 3 weeks on days indicated). At this time the average tumor volume was 90 mm^3 (FIG. 68D).
# U87MG.wtEGFR cells = assay: FACS binding to cell lines; assay type: cell-based, human
# Method: Briefly, cells were labelled with the relevant antibody (10 μg/ml) followed by fluorescein-conjugated goat anti-mouse IgG (1:100 dilution; Calbiochem San Diego, CA, USA; Becton-Dickinson PharMingen, San Diego, CA, US) as described previously (Nishikawa et al., 1994). FACS data was obtained on a Coulter Epics Elite ESP by observing a minimum of 5,000 events and analyzed using EXPO (version 2) for Windows.
# Stained cells were analyzed with a FACS Calibur™ using Cell Quest™ software (Becton-Dickinson PharMingen). […] 1. Mouse IgG2a or IgG2b was used as an isotype control.
# Cell lines and antibodies were prepared as described in Example 1. […] Cells (1 3 10 6) were incubated with 5 μg/ml of the appropriate antibody or an isotype-matched negative control in PBS containing 1% HSA for 30 min at 4° C. After three washes with PBS/1% HSA, cells were incubated an additional 30 min at 4° C. with FTTC-coupled goat anti-mouse antibody (1:100 dilution; Calbiochem, San Diego, CA). After three subsequent washes, cells were analyzed on an Epics Elite ESP (Beckman Coulter, Hialeah, FL) by observing a minimum of 20,000 events and analyzed using EXPO (version 2) for Windows.
# A431 xenografts [5] = assay: established xenograft model; assay type: in vivo, nude mice; settings: day 13; 1 mg injection
# Method: as §1
# At day 13, when control animals were sacrificed, the mean tumor volume was 1142±120.06 mm^3 for the control group and 451±65.58 mm^3 for the 1 mg injection group (p<0.0001).
# [6] = molecular target: T1, EGFR from U87MG.wtEGFR and A431 cells (Homo sapiens, UniProt P00533); assay: immunoprecipitation and Endo H digestion; assay type: binding
# T1 construct: expressed in transfected cells; host or cells: U87MG.wtEGFR (transfected with wtEGFR) and A431 (endogenous, amplified gene)
# Method: This possibility was tested by immunoprecipitating the EGFR from different cells lines labelled overnight with ^35S methionine/cysteine and then subjecting the resultant precipitates to Endoglycosidase H (Endo H) digestion. This enzyme preferentially removes high mannose type carbohydrates (i.e. immature glycosylation) from proteins while leaving complex carbohydrates (i.e. mature glycosylation) intact.
# [7] = test system: U87MG.wtEGFR brain xenografts; assay: systemic treatment of intracranial xenografts; parameters: species or system nude mice; settings: mouse, in vivo
# Method: U87MG.ΔEGFR cells (1×10^5) or 5×10^5 LN-Z308.ΔEGFR, A1207.ΔEGFR, U87MG, U87MG.DK, and U87MG.wtEGFR cells in 5 μl of PBS were implanted into the right corpus stratum of nude mice brains as described previously (Mishima et al. (2000) A peptide derived from the non-receptor binding region of urokinase plasminogen activator inhibits glioblastoma growth and angiogenesis in vivo in combination with cisplatin. Proc. Natl. Acad. Sci. U.S.A. 97, 8484-8489).
# DU145 cells = assay: FACS binding to cell lines; assay type: cell-based, human
# Text: Clearly, mAb806 and mAb175 can recognize only a small proportion of the EGFR on cells in the presence of an autocrine stimulation loop.
# A431 xenografts [8] = assay: combination therapy with AG1478, preventative model; assay type: in vivo, mice; settings: 0.1 mg mAb806; 400 μg AG1478
# Method: AG1478 (4-(3-Chloroanilino)-6,7-dimethoxyquinazoline) is a potent and selective inhibitor of the EGFR kinase versus HER2-neu and platelet-derived growth factor receptor kinase (Calbiochem Cat. No. 658552). […] The results are illustrated in FIG. 12. […] 400 μg AG1478 was administered at 0, 2, 4, 7, 9, and 11 days post xenograft.
# [9] = molecular target: T2, sEGFR (recombinant extracellular domain, amino acids 1-621, of the wild-type EGFR) (Homo sapiens, UniProt P00533); assay: ELISA on sEGFR coated plates; assay type: binding
# T2 construct: sEGFR is the recombinant extracellular domain (amino acids 1-621) of the wild-type EGFR; host or cells: CHO cells
# Method: Two types of ELISA were used to determine the specificity of the antibodies. […] Growth Factors. 18, 11-29). Antibodies were added to wells in triplicate at increasing concentration in 2% HSA in phosphate-buffered saline (PBS).
# A431 xenografts [10] = settings: mouse, in vivo
# Method: U87MG or A431 cells were injected on one side 7-10 days before U87MG.Δ2-7 cells were injected on the other side because of the faster growth rate observed for de2-7 EGFR expressing xenografts. Antibodies were radiolabeled and assessed for immunoreactivity as described above and were injected into mice by the retro-orbital route when tumors were 100-200 mg in weight. […] Unless indicated, groups of 5 mice were sacrificed at various time points post-injection and blood obtained by cardiac puncture. The tumors, liver, spleen, kidneys and lungs were obtained by dissection. All tissues were weighed and assayed for ^125I and ^131I activity using a dual-channel counting Window. Data was expressed for each antibody as % ID/g tumor determined by comparison to injected dose standards or converted into tumor to blood/liver ratios (i.e. % ID/g tumor divided by % ID/g blood or liver). Differences between groups were analyzed by Student's t-test.
# wtEGFR = molecular target: T3, wtEGFR (Homo sapiens, UniProt P00533); assay: immunoblotting of cell lysates; assay type: binding
# T3 construct: host or cells: cell lysates
molecule,measurement,setting,value
B1,effect on EGF-induced proliferation,[1],no effect
same,binding of iodinated antibody,parental U87MG cells,Neither ^125I-radiolabeled mAb806 or the DH8.3 antibody bound; also recorded: did not bind
same,effect on xenograft growth,U87MG xenografts [2],no effect
same,FACS staining,[3],clearly stained both cell lines but at a lower level
same,effect on xenograft growth,U87MG xenografts [4],no effect
same,mean tumor volume,DU145 xenografts,605 mm^3
same,FACS staining,U87MG.wtEGFR cells,stained; also recorded: reacted weakly
same,mean tumor volume,A431 xenografts [5],451±65.58 mm^3 and 450±70 mm^3
same,Endo H sensitivity of precipitated EGFR,[6],sensitive to Endo H
same,effect on survival,[7],slightly extended
same,median survival,[7],23 days
same,FACS binding,DU145 cells,bind to DU145 cells
same,tumor volume,A431 xenografts [8],significant reduction of tumor volume
same,inhibition of antibody binding to immobilized sEGFR by sEGFR in solution,[9],unable to inhibit
same,binding to immobilized wild-type sEGFR,[9]; DH8.3 up to 10 μg/ml,dose-dependent and saturating binding curves
same,inhibition of antibody binding to immobilized sEGFR by denatured sEGFR in solution,[9]; sEGFR heated 10 min at 95° C.,able to inhibit
same,uptake expressed as % ID/g tumor,A431 xenografts [10],comparatively low
same,reactivity after immunoblotting,wtEGFR,bound to the wtEGFR
